This series concerns the molecule itself. The series can be described thus: SEC; PepTSt solubilized and purified in LMNG (0.01%), final SEC step.

B1: peptide transporter PepTSt from Streptococcus thermophilus (wild-type) (natural protein)
chain: MEDKGKTFFGQPLGLSTLFMTEMWERFSYYGMRAILLYYMWFLISTGDLHITRATAASIMAIYASMVYLSGTIGGFVADRIIGARPAVFWGGVLIMLGHIVLALPFGASALFGSIILIIIGTGFLKPNVSTLVGTLYDEHDRRRDAGFSIFVFGINLGAFIAPLIVGAAQEAAGYHVAFSLAAIGMFIGLLVYYFGGKKTLDPHYLRPTDPLAPEEVKPLLVKVSLAVAGFIAIIVVMNLVGWNSLPAYINLLTIVAIAIPVFYFAWMISSVKVTSTEHLRVVSYIPLFIAAVLFWAIEEQGSVVLATFAAERVDSSWFPVSWFQSLNPLFIMLYTPFFAWLWTAWKKNQPSSPTKFAVGLMFAGLSFLLMAIPGALYGTSGKVSPLWLVGSWALVILGEMLISPVGLSVTTKLAPKAFNSQMMSMWFLSSSVGSALNAQLVTLYNAKSEVAYFSYFGLGSVVLGIVLVFLSKRIQGLMQGVE
notes: PepTSt, major facilitator superfamily peptide transporter of Streptococcus thermophilus; Dimer in LMNG and DDM, monomer in DM and NM; also called Ce27; source: Escherichia coli C41, membrane solubilization, purified (IMAC, SEC) in DDM, DM, NM or LMNG; not shown: hexahistidine, C-terminal, cleaved
With B1, the “stoichiometry N” value is 2.

The record behind these values is article PMC5338821, “Structure determination of a major facilitator peptide transporter: Inward facing PepTSt from Streptococcus thermophilus crystallized in space group P3_(1)21” (PLoS ONE, 2017).
